Test results published in the supplement of paper PMC9112550, “Optimization of the antimicrobial peptide Bac7 by deep mutational scanning” (BMC Biology, 2022).

What follows are sequences tested on Escherichia coli TOP10 (assay: shrunken log2 fold change of peptide-encoding DNA abundance (4.5 h post-induction vs induction); higher = less antimicrobial activity (less host growth inhibition)). Conditions: time post-induction: 4.5 h; library: site-saturation at positions 5, 18, 19, 20.
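Also: peptides expressed intracellularly from a pBAD plasmid library in pooled LB shake-flask culture, induced with 0.3% L-arabinose, DNA abundance read by NGS, three biological replicates, DESeq2 with apeglm shrinkage.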

| Sequence | shrunken log2 fold change |
| --- | --- |
| RRIRNRPPRLPRPRPRPPIVPRP | -0.154 |
| RRIRNRPPRLPRPRPRPPIYPRP | -0.202 |
| RRIRNRPPRLPRPRPRPPKKPRP | -0.166 |
| RRIRNRPPRLPRPRPRPPLRPRP | 0.138 |
| RRIRNRPPRLPRPRPRPPMNPRP | -0.0606 |
| RRIRNRPPRLPRPRPRPPMTPRP | 1.77 |
| RRIRNRPPRLPRPRPRPPNYPRP | -0.564 |
| RRIRNRPPRLPRPRPRPPPIPRP | 0.801 |
| RRIRNRPPRLPRPRPRPPREPRP | 0.534 |
| RRIRNRPPRLPRPRPRPPRFPRP | 0.441 |
| RRIRNRPPRLPRPRPRPPTNPRP | 0.151 |
| RRIRNRPPRLPRPRPRPPVAPRP | 0.239 |
| RRIRNRPPRLPRPRPRPPVCPRP | 0.126 |
| RRIRNRPPRLPRPRPRPPVQPRP | 0.0479 |
| RRIRNRPPRLPRPRPRPPWAPRP | 0.38 |
| RRIRNRPPRLPRPRPRPPWSPRP | -0.294 |
| RRIRNRPPRLPRPRPRPPYGPRP | -0.0471 |
| RRIRNRPPRLPRPRPRPPYRPRP | -0.11 |
| RRIRNRPPRLPRPRPRPQDKPRP | 0.0859 |
| RRIRNRPPRLPRPRPRPQEIPRP | -0.00783 |
| RRIRNRPPRLPRPRPRPQEQPRP | 0.042 |
| RRIRNRPPRLPRPRPRPQEWPRP | -0.00211 |

| Sequence | shrunken log2 fold change |
| --- | --- |
| RRIRNRPPRLPRPRPRPQFNPRP | -0.0424 |
| RRIRNRPPRLPRPRPRPQFYPRP | -0.475 |
| RRIRNRPPRLPRPRPRPQHLPRP | -0.517 |
| RRIRNRPPRLPRPRPRPQHPPRP | -0.325 |
| RRIRNRPPRLPRPRPRPQIDPRP | -0.0557 |
| RRIRNRPPRLPRPRPRPQIFPRP | -0.27 |
| RRIRNRPPRLPRPRPRPQIHPRP | -0.364 |
| RRIRNRPPRLPRPRPRPQLDPRP | 0.112 |
| RRIRNRPPRLPRPRPRPQMHPRP | -0.108 |
| RRIRNRPPRLPRPRPRPQNLPRP | -0.266 |
| RRIRNRPPRLPRPRPRPQNVPRP | -0.0764 |
| RRIRNRPPRLPRPRPRPQPAPRP | 0.0618 |
| RRIRNRPPRLPRPRPRPQPCPRP | 0.0582 |
| RRIRNRPPRLPRPRPRPQPPPRP | 0.833 |
| RRIRNRPPRLPRPRPRPQPVPRP | 0.0704 |
| RRIRNRPPRLPRPRPRPQQAPRP | -0.356 |
| RRIRNRPPRLPRPRPRPQRMPRP | 0.0535 |
| RRIRNRPPRLPRPRPRPQSCPRP | -0.00689 |
| RRIRNRPPRLPRPRPRPQSLPRP | -0.139 |
| RRIRNRPPRLPRPRPRPQSNPRP | -0.428 |
| RRIRNRPPRLPRPRPRPQSPPRP | -0.0298 |
| RRIRNRPPRLPRPRPRPQYFPRP | -0.00973 |

| Sequence | shrunken log2 fold change |
| --- | --- |
| RRIRNRPPRLPRPRPRPQYIPRP | -0.0546 |
| RRIRNRPPRLPRPRPRPQYNPRP | -0.674 |
| RRIRNRPPRLPRPRPRPQYYPRP | -0.128 |
| RRIRNRPPRLPRPRPRPRDCPRP | 0.0442 |
| RRIRNRPPRLPRPRPRPRDNPRP | 0.104 |
| RRIRNRPPRLPRPRPRPRDPPRP | 0.457 |
| RRIRNRPPRLPRPRPRPRERPRP | 0.0512 |
| RRIRNRPPRLPRPRPRPRFCPRP | 0.254 |
| RRIRNRPPRLPRPRPRPRFEPRP | 0.108 |
| RRIRNRPPRLPRPRPRPRGMPRP | 0.151 |
| RRIRNRPPRLPRPRPRPRGTPRP | 0.224 |
| RRIRNRPPRLPRPRPRPRGWPRP | 0.962 |
| RRIRNRPPRLPRPRPRPRKQPRP | 0.215 |
| RRIRNRPPRLPRPRPRPRLNPRP | -0.212 |
| RRIRNRPPRLPRPRPRPRMPPRP | -0.0444 |
| RRIRNRPPRLPRPRPRPRNGPRP | -0.0619 |
| RRIRNRPPRLPRPRPRPRPFPRP | 0.472 |
| RRIRNRPPRLPRPRPRPRPYPRP | -0.25 |
| RRIRNRPPRLPRPRPRPRRIPRP | 0.0821 |
| RRIRNRPPRLPRPRPRPRRKPRP | 0.0625 |
| RRIRNRPPRLPRPRPRPRTLPRP | -0.0666 |
| RRIRNRPPRLPRPRPRPRTNPRP | -0.166 |

| Sequence | shrunken log2 fold change |
| --- | --- |
| RRIRNRPPRLPRPRPRPRTSPRP | -0.0838 |
| RRIRNRPPRLPRPRPRPRVIPRP | -0.21 |
| RRIRNRPPRLPRPRPRPRYGPRP | -0.0289 |
| RRIRNRPPRLPRPRPRPRYKPRP | -0.566 |
| RRIRNRPPRLPRPRPRPRYNPRP | -1.04 |
| RRIRNRPPRLPRPRPRPRYWPRP | 0.0625 |
| RRIRNRPPRLPRPRPRPRYYPRP | -0.705 |
| RRIRNRPPRLPRPRPRPSCNPRP | -0.485 |
| RRIRNRPPRLPRPRPRPSEQPRP | -0.288 |
| RRIRNRPPRLPRPRPRPSFHPRP | -0.41 |
| RRIRNRPPRLPRPRPRPSFMPRP | -1.21 |
| RRIRNRPPRLPRPRPRPSGIPRP | -0.983 |
| RRIRNRPPRLPRPRPRPSGYPRP | 0.00359 |
| RRIRNRPPRLPRPRPRPSHMPRP | -0.883 |
| RRIRNRPPRLPRPRPRPSICPRP | -0.328 |
| RRIRNRPPRLPRPRPRPSILPRP | -0.151 |
| RRIRNRPPRLPRPRPRPSIMPRP | -0.611 |
| RRIRNRPPRLPRPRPRPSITPRP | -0.656 |
| RRIRNRPPRLPRPRPRPSKNPRP | -0.267 |
| RRIRNRPPRLPRPRPRPSLDPRP | -0.258 |
| RRIRNRPPRLPRPRPRPSLIPRP | -0.138 |
| RRIRNRPPRLPRPRPRPSMIPRP | -0.427 |

| Sequence | shrunken log2 fold change |
| --- | --- |
| RRIRNRPPRLPRPRPRPSNDPRP | -0.349 |
| RRIRNRPPRLPRPRPRPSPYPRP | -0.507 |
| RRIRNRPPRLPRPRPRPSQKPRP | -0.0723 |
| RRIRNRPPRLPRPRPRPSSLPRP | -0.333 |
| RRIRNRPPRLPRPRPRPSSQPRP | -0.208 |
| RRIRNRPPRLPRPRPRPSVKPRP | -0.195 |
| RRIRNRPPRLPRPRPRPSWDPRP | 0.039 |
| RRIRNRPPRLPRPRPRPSWPPRP | -0.0605 |
| RRIRNRPPRLPRPRPRPSYEPRP | -0.999 |
| RRIRNRPPRLPRPRPRPTDKPRP | 0.008 |
| RRIRNRPPRLPRPRPRPTFHPRP | -0.422 |
| RRIRNRPPRLPRPRPRPTGYPRP | -0.0249 |
| RRIRNRPPRLPRPRPRPTHNPRP | -0.114 |
| RRIRNRPPRLPRPRPRPTLGPRP | 0.3 |
| RRIRNRPPRLPRPRPRPTMLPRP | -0.241 |
| RRIRNRPPRLPRPRPRPTNLPRP | -0.0193 |
| RRIRNRPPRLPRPRPRPTPCPRP | 0.043 |
| RRIRNRPPRLPRPRPRPTPLPRP | 0.268 |
| RRIRNRPPRLPRPRPRPTQQPRP | 0.244 |
| RRIRNRPPRLPRPRPRPTQVPRP | 0.152 |
| RRIRNRPPRLPRPRPRPTRSPRP | -0.177 |
